{
  "source": "patent US20240261333A1",
  "about": "(published 2024)",
  "test_in_all_cases": "co-IP with anti-FLAG, mass spectrometry; N-FLAG B3GNT2",
  "key": {"[1]": {"target": "T1, YBX3 (UniProt P16989 2-372, limits assumed)", "T1 construct": "Endogenous protein found in the co-IP by mass spectrometry; also called XP_016875611.1 (+1)", "T1 sequence (P16989 2-372 limits assumed)": "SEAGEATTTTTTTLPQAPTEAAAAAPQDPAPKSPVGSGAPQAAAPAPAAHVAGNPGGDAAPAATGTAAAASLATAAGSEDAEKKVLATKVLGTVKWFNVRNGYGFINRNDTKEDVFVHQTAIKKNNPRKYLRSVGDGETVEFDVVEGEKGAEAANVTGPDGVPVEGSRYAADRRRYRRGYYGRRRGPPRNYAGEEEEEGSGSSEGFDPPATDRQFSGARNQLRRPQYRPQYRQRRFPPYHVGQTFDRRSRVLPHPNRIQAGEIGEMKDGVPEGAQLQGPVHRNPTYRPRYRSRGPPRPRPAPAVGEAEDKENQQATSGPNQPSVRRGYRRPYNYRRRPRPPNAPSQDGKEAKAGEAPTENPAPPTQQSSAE", "protocol": "(§1) Cells were plated in 10-cm cell culture dishes and grown to 60-80% confluency. For each condition, two biological replicates were harvested for co-IP. Cells were washed with PBS and 4 mL of lysis buffer (20 mM HEPES, 1% Triton X-100, 150 mM NaCl, 1 mM EDTA, and 10% glycerol) containing protease inhibitor cocktail was added. Cells were scraped and lysate was incubated at 4° C. under rotary agitation for 1 h. Lysate was centrifuged at 14,000×g for 10 min at 4° C. Supernatant was transferred to a new tube and an aliquot was taken as the input. […] For Western blots, 10 μg/mL Chicken Anti-FLAG (Aves labs ET-DY100) and IgY control (R&D Systems AB-101-C) antibodies were biotinylated (Thermo Fisher Scientific 90407) and added to the respective conditions. Lysates with antibodies were incubated at 4° C. under rotary agitation overnight. For each mL of lysate, 50 μL of Pierce Protein A/G Magnetic Beads (Mass spectrometry; Thermo Fisher Scientific 88803) or Pierce Streptavidin Magnetic Beads (Western blot; Thermo Fisher Scientific 88817) was washed twice with lysis buffer. Lysates with antibodies were added to the beads and incubated at 4° C. under rotary agitation for 4 h. Beads were washed with lysis buffer 3 times and resuspended in lysis buffer for storage.\n(§2) Magnetic beads were resuspended in 100 mM Tris pH 7.8, reduced, alkylated and digested with trypsin at 37° ° C. overnight. This solution was subjected to solid phase extraction to concentrate the peptides and remove unwanted reagents followed by injection onto a Shimadzu HPLC with fraction collector. Eight fractions were collected and after concentration were injected on a Waters NanoAcquity HPLC equipped with a self-packed Aeris 3 μm C18 analytical column 0.075 mm by 20 cm, (Phenomenex). Peptides were eluted using standard reverse-phase gradients. The effluent from the column was analyzed using a Thermo Orbitrap Elite mass spectrometer (nanospray configuration) operated in a data dependent manner for 54 minutes. The resulting fragmentation spectra were correlated against the known database using Proteome Discover 1.4 (Thermo Fisher Scientific)."}, "[2]": {"target": "T2, HBA1 (UniProt P69905 2-142)", "T2 construct": "Protein found in the co-IP by mass spectrometry; also called NP_000549.1", "T2 sequence (P69905 2-142 limits assumed)": "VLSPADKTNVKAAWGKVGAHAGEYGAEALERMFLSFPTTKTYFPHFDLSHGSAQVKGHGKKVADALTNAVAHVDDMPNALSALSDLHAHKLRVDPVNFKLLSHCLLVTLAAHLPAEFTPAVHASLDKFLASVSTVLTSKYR", "protocol": "as §1, §2"}, "[3]": {"target": "T3, HNRNPF (UniProt P52597 2-415)", "T3 construct": "Endogenous protein found in the co-IP by mass spectrometry; also called NP_001091676.1", "T3 sequence (looked up)": "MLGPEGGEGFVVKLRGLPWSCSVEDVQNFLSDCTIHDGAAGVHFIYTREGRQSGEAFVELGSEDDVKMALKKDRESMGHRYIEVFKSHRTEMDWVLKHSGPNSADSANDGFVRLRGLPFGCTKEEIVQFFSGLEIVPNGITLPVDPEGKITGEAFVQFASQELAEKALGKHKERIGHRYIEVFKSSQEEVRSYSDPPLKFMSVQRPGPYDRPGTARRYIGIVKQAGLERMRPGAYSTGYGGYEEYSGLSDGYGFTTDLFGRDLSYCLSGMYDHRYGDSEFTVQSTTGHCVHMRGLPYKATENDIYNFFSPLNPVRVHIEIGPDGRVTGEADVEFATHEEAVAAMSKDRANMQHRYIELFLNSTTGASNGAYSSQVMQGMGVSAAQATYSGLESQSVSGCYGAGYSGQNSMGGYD", "protocol": "as §1, §2"}, "[4]": {"target": "T4, LTF (UniProt P02788 20-710, limits assumed)", "T4 construct": "Protein found in the co-IP by mass spectrometry; also called NP_001308051.1", "T4 sequence (P02788 20-710 limits assumed)": "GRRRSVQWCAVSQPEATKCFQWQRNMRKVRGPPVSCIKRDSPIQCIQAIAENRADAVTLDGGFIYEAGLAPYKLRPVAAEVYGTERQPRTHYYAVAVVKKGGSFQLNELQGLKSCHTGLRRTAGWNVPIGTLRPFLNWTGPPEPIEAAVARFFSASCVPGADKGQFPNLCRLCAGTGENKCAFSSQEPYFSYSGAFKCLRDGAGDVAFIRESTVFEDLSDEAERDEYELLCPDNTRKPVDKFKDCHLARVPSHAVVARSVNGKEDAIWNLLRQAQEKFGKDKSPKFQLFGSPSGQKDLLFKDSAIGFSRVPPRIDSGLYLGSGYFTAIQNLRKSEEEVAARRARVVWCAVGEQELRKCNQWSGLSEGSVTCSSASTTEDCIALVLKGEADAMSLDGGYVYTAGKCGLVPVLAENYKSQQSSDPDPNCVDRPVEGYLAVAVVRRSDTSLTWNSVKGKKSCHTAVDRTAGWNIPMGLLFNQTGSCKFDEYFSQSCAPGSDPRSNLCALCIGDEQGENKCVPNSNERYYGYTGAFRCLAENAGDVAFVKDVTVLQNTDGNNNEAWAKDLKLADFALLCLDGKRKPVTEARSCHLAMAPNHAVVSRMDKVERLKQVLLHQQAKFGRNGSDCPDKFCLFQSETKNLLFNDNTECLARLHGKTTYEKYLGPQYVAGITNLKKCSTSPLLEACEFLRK", "protocol": "as §1, §2"}, "[5]": {"target": "T5, RCC2 (UniProt Q9P258 1-522)", "T5 construct": "Endogenous protein found in the co-IP by mass spectrometry; also called NP_061185.1", "T5 sequence (Q9P258 whole entry)": "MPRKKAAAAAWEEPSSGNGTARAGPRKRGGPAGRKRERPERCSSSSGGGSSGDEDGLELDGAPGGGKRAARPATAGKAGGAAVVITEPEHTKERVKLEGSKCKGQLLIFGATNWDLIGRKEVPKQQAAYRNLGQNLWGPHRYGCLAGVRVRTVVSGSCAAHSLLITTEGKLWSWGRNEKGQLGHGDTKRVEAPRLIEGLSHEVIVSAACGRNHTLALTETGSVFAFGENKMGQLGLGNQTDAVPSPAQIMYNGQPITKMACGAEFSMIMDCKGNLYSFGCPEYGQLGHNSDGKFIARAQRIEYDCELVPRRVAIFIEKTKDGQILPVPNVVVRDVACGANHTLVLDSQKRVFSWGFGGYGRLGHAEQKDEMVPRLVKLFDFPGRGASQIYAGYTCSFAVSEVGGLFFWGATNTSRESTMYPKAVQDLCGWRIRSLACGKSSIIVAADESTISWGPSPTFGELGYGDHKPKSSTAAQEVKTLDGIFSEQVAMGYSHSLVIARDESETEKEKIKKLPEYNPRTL", "protocol": "as §1, §2"}, "[6]": {"target": "RPL36 (UniProt Q9Y3U8 2-105)", "protocol": "as §1, §2"}, "[7]": {"target": "T6, RPN1 (UniProt P04843 24-607)", "T6 construct": "Endogenous protein found in the co-IP by mass spectrometry; also called NP_002941.1", "T6 sequence (looked up)": "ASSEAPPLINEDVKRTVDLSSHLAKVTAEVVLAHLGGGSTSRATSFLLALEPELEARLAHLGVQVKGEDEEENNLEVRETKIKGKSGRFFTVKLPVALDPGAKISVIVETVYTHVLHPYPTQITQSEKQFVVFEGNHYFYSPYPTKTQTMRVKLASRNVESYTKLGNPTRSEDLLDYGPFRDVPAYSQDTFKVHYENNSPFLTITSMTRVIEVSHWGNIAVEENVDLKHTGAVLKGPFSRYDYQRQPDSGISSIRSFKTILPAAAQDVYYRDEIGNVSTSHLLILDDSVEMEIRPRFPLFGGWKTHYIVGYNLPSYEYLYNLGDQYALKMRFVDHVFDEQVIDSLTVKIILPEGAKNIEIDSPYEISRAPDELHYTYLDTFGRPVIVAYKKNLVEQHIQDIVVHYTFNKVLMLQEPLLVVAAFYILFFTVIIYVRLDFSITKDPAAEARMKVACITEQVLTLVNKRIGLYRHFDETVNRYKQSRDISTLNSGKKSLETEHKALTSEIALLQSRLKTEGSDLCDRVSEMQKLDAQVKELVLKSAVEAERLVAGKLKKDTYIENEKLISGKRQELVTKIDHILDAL", "protocol": "as §1, §2"}, "[8]": {"target": "T7, CTSD (UniProt P07339 65-412, limits assumed)", "T7 construct": "Endogenous protein found in the co-IP by mass spectrometry; also called NP_001900.1", "T7 sequence (P07339 65-412 limits assumed)": "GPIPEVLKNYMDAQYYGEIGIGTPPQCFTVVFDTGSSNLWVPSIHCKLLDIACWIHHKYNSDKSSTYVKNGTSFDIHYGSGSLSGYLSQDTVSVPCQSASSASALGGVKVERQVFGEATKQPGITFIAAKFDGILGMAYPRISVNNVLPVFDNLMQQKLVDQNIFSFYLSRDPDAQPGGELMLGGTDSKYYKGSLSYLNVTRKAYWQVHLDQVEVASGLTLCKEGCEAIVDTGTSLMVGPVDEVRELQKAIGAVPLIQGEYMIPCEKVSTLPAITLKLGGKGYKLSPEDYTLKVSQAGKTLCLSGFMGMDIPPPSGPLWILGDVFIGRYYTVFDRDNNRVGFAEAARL", "protocol": "as §1, §2"}, "[9]": {"target": "RPL35A (UniProt P18077 1-110)", "protocol": "as §1, §2"}, "[10]": {"target": "RPL36A (UniProt P83881 1-106)", "protocol": "as §1, §2"}, "[11]": {"target": "RPL11 (UniProt P62913 2-177)", "protocol": "as §1, §2"}},
  "data": [
    {"binder": "N-terminal FLAG tagged B3GNT2 (enzyme, human, UniProt Q9NY97 1-397, looked up, FLAG-tagged ORF overexpressed in cells; bait of the anti-FLAG co-IP; also called N-FLAG B3GNT2; N-term FLAG; not shown: FLAG tag at the N-terminus) MSVGRRRIKLLGILMMANVFIYFIMEVSKSSSQEKNGKGEVIIPKEKFWKISTPPEAYWNREQEKLNRQYNPILSMLTNQTGEAGRLSNISHLNYCEPDLRVTSVVTGFNNLPDRFKDFLLYLRCRNYSLLIDQPDKCAKKPFLLLAIKSLTPHFARRQAIRESWGQESNAGNQTVVRVFLLGQTPPEDNHPDLSDMLKFESEKHQDILMWNYRDTFFNLSLKEVLFLRWVSTSCPDTEFVFKGDDDVFVNTHHILNYLNSLSKTKAKDLFIGDVIHNAGPHRDKKLKYYIPEVVYSGLYPPYAGGGGFLYSGHLALRLYHITDQVHLYPIDDVYTGMCLQKLGLVPEKHKGFRTFDIEEKNKNNICSYVDLMLVHSRKPQEMIDIWSQLQSAHLKC", "values": [
      {"measurement": "co-IP mass spectrometry count", "setting": "[1]", "result": 0},
      {"measurement": "co-IP mass spectrometry count", "setting": "[2]", "result": 3},
      {"measurement": "co-IP mass spectrometry count", "setting": "[3]", "result": 0},
      {"measurement": "co-IP mass spectrometry count", "setting": "[4]", "result": 8},
      {"measurement": "co-IP mass spectrometry count", "setting": "[5]", "result": 0},
      {"measurement": "co-IP mass spectrometry count", "setting": "[6]", "result": 0},
      {"measurement": "co-IP mass spectrometry count", "setting": "[7]", "result": 0},
      {"measurement": "co-IP mass spectrometry count", "setting": "[8]", "result": 3},
      {"measurement": "co-IP mass spectrometry count", "setting": "[9]", "result": 0},
      {"measurement": "co-IP mass spectrometry count", "setting": "[10]", "result": 3},
      {"measurement": "co-IP mass spectrometry count", "setting": "[11]", "result": 5}
    ]}
  ]
}
